Results on 1 molecule are retold here after article PMC12289918 (Nature Communications, 2025).

The test has as its target T1, K11-HTS-Tail (KLP-11 residues 537-782) (Caenorhabditis elegans, UniProt Q19633 537-782).
T1 sequence (looked up): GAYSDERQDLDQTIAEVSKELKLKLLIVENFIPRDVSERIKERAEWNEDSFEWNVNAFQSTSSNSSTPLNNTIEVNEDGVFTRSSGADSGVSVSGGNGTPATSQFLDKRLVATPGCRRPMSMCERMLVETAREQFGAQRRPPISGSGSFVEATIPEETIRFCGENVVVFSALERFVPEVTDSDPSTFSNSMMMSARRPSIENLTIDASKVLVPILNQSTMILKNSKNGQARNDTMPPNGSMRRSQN
Nature of the test: SEC-MALS.

B1: K20-HTS-Tail (KLP-20 residues 527-646) (domain or fragment, Caenorhabditis elegans, UniProt Q965T6 527-646, looked up)
chain: EDHQRQVEAMLDDIRQLRKELLLNIAIIDEYIPVEHVELIEKYVSWSEEHGDWQLKAIAYTGNNMRASAPPAKKEFSNNNQTVPMYYSYRADLGASTAEHRPRTSSKKHRASIRLQQLLT
In the case of B1, the stoichiometry N (usually the number of molecules, sites or subunits per partner or assembly) was 1.
